Assay results reported in the RNAGym collection of RNA variant scans (doi:10.7554/elife.80360).

B1: Hammerhead Ribozyme (parent)
chain: ACCGGAUGUGCUUUCCGGUCUGAUGAGUCCGUGAGGACGAAACAG

Variants of: B1
Experiment: self-cleavage, relative activity (ratio to wild type); higher = more cleavage; co-transcriptional

| Variant | self-cleavage |
| --- | --- |
| G25U U28A | 0.385 |
| G25U U28C | 0.274 |
| G25U U28G | 0.314 |
| A26G G27U | 0.322 |
| A26G G27A | 0.27 |
| A26G G27C | 0.297 |
| A26C C38G | 0.33 |
| A26C C38U | 0.503 |
| A26C C38A | 0.657 |
| A26C A37C | 0.518 |
| A26C A37U | 0.506 |
| A26C A37G | 0.671 |
| A26C A41C | 0.369 |
| A26C A41G | 0.307 |
| A26C A41U | 0.299 |
| A26C G45C | 0.398 |
| A26C G45U | 0.45 |
| A26C G45A | 0.304 |
| G27A A34C | 0.431 |
| G27A A34G | 0.513 |
| G27A A34U | 0.574 |
| A26C C43U | 0.343 |
| A26C C43A | 0.349 |
| A26C C43G | 0.31 |

| Variant | self-cleavage |
| --- | --- |
| G25U G33A | 0.374 |
| G25U G33U | 0.325 |
| G25U G33C | 0.305 |
| A26U A40C | 0.331 |
| A26U A40G | 0.344 |
| A26U A40U | 0.341 |
| A26G A34U | 0.353 |
| A26G A34C | 0.346 |
| A26G A34G | 0.305 |
| G25A U28C | 0.355 |
| G25A U28G | 0.313 |
| G25A U28A | 0.342 |
| A26U G45U | 0.476 |
| A26U G45C | 0.362 |
| A26U G45A | 0.359 |
| A26G U28G | 0.335 |
| A26G U28A | 0.274 |
| A26G U28C | 0.383 |
| A26G U32C | 0.328 |
| A26G U32A | 0.373 |
| A26G U32G | 0.412 |
| G27A A37G | 0.691 |
| G27A A37C | 0.743 |
| G27A A37U | 0.522 |

| Variant | self-cleavage |
| --- | --- |
| G25C C43U | 0.425 |
| G25C C43A | 0.302 |
| G25C C43G | 0.235 |
| G25U A26U | 0.343 |
| G25U A26G | 0.298 |
| G25U A26C | 0.288 |
| A26U C30U | 0.703 |
| A26U C30A | 0.507 |
| A26U C30G | 0.423 |
| G25A G35C | 0.347 |
| G25A G35U | 0.35 |
| G25A G35A | 0.315 |
| G25C G45A | 0.302 |
| G25C G45U | 0.279 |
| G25C G45C | 0.378 |
| A26G C30U | 0.404 |
| A26G C30A | 0.307 |
| A26G C30G | 0.245 |
| A26U U32C | 0.819 |
| A26U U32A | 0.846 |
| A26U U32G | 0.466 |
| A26C G31U | 0.727 |
| A26C G31A | 0.687 |
| A26C G31C | 0.411 |

| Variant | self-cleavage |
| --- | --- |
| G25A G36C | 0.302 |
| G25A G36A | 0.32 |
| G25A G36U | 0.33 |
| G25A U32G | 0.419 |
| G25A U32C | 0.417 |
| G25A U32A | 0.352 |
| A26G G35A | 0.286 |
| A26G G35C | 0.35 |
| A26G G35U | 0.283 |
| A26U A37C | 0.509 |
| A26U A37U | 0.545 |
| A26U A37G | 0.736 |
| A26G | 0.379 |
| A26U | 0.848 |
| A26C | 0.7 |
| A26G C43A | 0.325 |
| A26G C43G | 0.31 |
| A26G C43U | 0.285 |
| G25C G39U | 0.33 |
| G25C G39C | 0.242 |
| G25C G39A | 0.33 |
| G27A A44C | 0.373 |
| A26U G36U | 0.446 |
| A26U G36C | 0.265 |

| Variant | self-cleavage |
| --- | --- |
| A26U G36A | 0.458 |
| G25U G36C | 0.312 |
| G25U G36A | 0.365 |
| G25U G36U | 0.334 |
| A26U G39A | 0.366 |
| A26U G39U | 0.296 |
| A26U G39C | 0.378 |
| G25C G27C | 0.278 |
| G25C G27A | 0.285 |
| G25C G27U | 0.294 |
| G25U C29G | 0.313 |
| G25U C29U | 0.273 |
| G25U C29A | 0.321 |
| A26G A42G | 0.225 |
| A26G A42C | 0.231 |
| A26G A42U | 0.286 |
| A26C G27A | 0.313 |
| A26C G27U | 0.397 |
| A26C G27C | 0.303 |
| A26C U28A | 0.572 |
| A26C U28G | 0.46 |
| A26C U28C | 0.524 |
| G25C A42G | 0.27 |
| G25C A42C | 0.293 |

| Variant | self-cleavage |
| --- | --- |
| G25C A42U | 0.332 |
| G25C C29A | 0.243 |
| G25C C29G | 0.334 |
| G25C C29U | 0.235 |
| A26C G35A | 0.431 |
| A26C G35U | 0.334 |
| A26C G35C | 0.489 |
| G25U A40U | 0.417 |
| G25U A40C | 0.272 |
| G25U A40G | 0.328 |
| A26G G39U | 0.343 |
| A26G G39A | 0.368 |
| A26G G39C | 0.309 |
| A26G G31C | 0.324 |
| A26G G31U | 0.516 |
| A26G G31A | 0.327 |
| A26G C38A | 0.325 |
| A26G C38G | 0.332 |
| A26G C38U | 0.337 |
| G25U G39A | 0.318 |
| G25U G39U | 0.295 |
| G25U G39C | 0.302 |
| A26U A42C | 0.293 |
| A26U A42G | 0.303 |

| Variant | self-cleavage |
| --- | --- |
| A26U A42U | 0.261 |
| G25C A26G | 0.265 |
| G25C A26U | 0.337 |
| G25C A26C | 0.355 |
| G27A | 0.897 |
| A26U A44U | 0.443 |
| A26U A44G | 1.04 |
| A26U A44C | 0.477 |
| G25U G27A | 0.34 |
| G25U G27U | 0.31 |
| G25U G27C | 0.285 |
| G25U A34U | 0.294 |
| G25U A34C | 0.317 |
| G25U A34G | 0.261 |
| A26U G35A | 0.52 |
| A26U G35C | 0.377 |
| A26U G35U | 0.491 |
| G25A G39U | 0.351 |
| G25A G39C | 0.305 |
| G25A G39A | 0.335 |
| G27A A41G | 0.361 |
| G27A A41C | 0.339 |
| G27A A41U | 0.319 |
